Data on one molecule can be found in patent US20170281796A1, “c-Met Antibody Drug Conjugate” (Sorrento Therapeutics, Inc., priority 2014, published 2017).

This assay concerns MDA-MB468. In words: internalization of anti c-Met antibody in triple negative breast cancer cell line. As to conditions: 1 μg/ml antibody, 180 min at 37° C.; FIG. 8. Format: cell-based. On the procedure:
Internalization of anti c-Met antibody IgG1 H8-A2 (also called STI-0602 SEQ ID NO. 25/SEQ ID NO. 26) in MDA-MB468. MDA-MB468 were plated overnight and incubated with 1 μg/ml anti-C-Met H8A2 antibody for 180 min at 37° C. Cells were stained with anti-AF488.

B1: H8-A2: anti c-Met antibody IgG1, heavy chain SEQ ID NO. 25 / light chain SEQ ID NO. 26 (antibody, V domains shown)
VH: EVQLVQSGAEVKKPGASVKVSCKASGYTFYSEYMHWVRQAPGQGLEWMGWINPNSGNTGVAPKFQGRVTMTRNTSISTAYMELSSLRSEDTAVYYCARRGTTVSFDTWGQGTLVTVSS
VL: QLVLTQSPSVSVAPGQRVTISCSGSNSNIGNNYVSWYHHLPGTAPKLLIYDNNKRPSGIPDRFSGSKSGTSATLGITGLQPGDEAHYYCGTWDSTLSAWAFGGGTKLTVL
modifications: Homo sapians
Take B1: the internalization result is listed as “internalized”.
